For 7 substances, EC50 (read off the curve) and Kd results are on record in patent publication US20170362341A1.

The EC50 (read off the curve) is the concentration at which the effect is half-maximal. Usually Kd stands for a measure of binding affinity in units of concentration. High values mean lower affinity, low ones higher affinity.

Test [1] deals with CD-30 on Karpas 299 and L540 cells (UniProt P28908). Briefly: FACS-based cell binding on Karpas 299 cells, Alexa-488 goat anti-human IgG detection, MFI normalised to the averaged maximum (% binding).
Test [2] has the same target. Briefly: flow cytometry on L540 cells, one site-total binding fit. (In general: In flow cytometry, cells or beads pass a laser one at a time.)
Test [3] has the same target. The experiment in a line: flow cytometry on Karpas 299 cells, one site-total binding fit.
Test [4] shares this target. The experiment in a line: FACS-based cell binding on L540 cells, Alexa-488 goat anti-human IgG detection, MFI normalised to the averaged maximum (% binding).
Test [5] deals with HER2 on SKBR3 cells (UniProt P04626). Briefly: flow cytometry on SKBR3 cells.
Test [6] shares this target. The experiment in a line: flow cytometry on SKBR3 cells, one site specific binding fit; column head prints 'Cell Binding IC50, nM' (heads of c3 and c4 seem swapped).

Sequence of UniProt P28908 (P28908 19-595 limits assumed): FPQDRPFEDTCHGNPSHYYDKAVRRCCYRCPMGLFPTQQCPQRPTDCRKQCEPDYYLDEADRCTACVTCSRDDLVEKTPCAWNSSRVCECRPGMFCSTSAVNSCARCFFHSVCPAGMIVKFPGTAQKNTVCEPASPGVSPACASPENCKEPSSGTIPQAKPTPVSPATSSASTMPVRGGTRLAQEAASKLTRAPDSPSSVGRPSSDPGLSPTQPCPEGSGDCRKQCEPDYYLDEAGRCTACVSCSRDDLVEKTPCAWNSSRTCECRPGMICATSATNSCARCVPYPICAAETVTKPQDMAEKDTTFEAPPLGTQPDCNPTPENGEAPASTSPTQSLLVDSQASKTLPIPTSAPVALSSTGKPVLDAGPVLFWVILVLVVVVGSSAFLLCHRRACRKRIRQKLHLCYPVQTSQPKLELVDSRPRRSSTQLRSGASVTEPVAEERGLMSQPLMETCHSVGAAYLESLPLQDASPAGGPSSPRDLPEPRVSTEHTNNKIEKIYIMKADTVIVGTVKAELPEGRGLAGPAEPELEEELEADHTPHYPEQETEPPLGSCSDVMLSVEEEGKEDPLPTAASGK

Turning to “Aglycosylated Brentuximab IgG HC-F404 conjugated to DBCO-MMAF 2 (antibody)”, the values for the EC50 (read off the curve) in test [1] and in test [4] were 0.3 nM and 0.7 nM, respectively. Moreover, the Kd amounted to 0.81 nM in test [2] and 0.46 nM in test [3].
In the case of “Adcetris HC F404 unconjugated (antibody)”, in test [4], the EC50 (read off the curve) is 1 nM.
For the substance “Aglycosylated Brentuximab IgG LC-N152 conjugated to DBCO-MMAF 2 (antibody)”, the EC50 (read off the curve) in test [1] was 0.4 nM; in test [4], 0.6 nM. The dissociation constant Kd in test [2] was 1 nM; in test [3], 0.5 nM.
“Trastuzumab scFv-Fc (-1) pN3F conjugated to DBCO-MMAF (Fc fusion)” showed a dissociation constant Kd with HER2 on SKBR3 cells [5] of 6.8 nM. This counts as single-digit nanomolar.
Take “Adcetris HC K121 unconjugated (antibody)”: the EC50 (read off the curve) in test [4] came out at 0.8 nM.
Substance “Aglycosylated Brentuximab IgG HC-K121 conjugated to DBCO-MMAF 2 (antibody)” displayed an EC50 (read off the curve) in test [1] of 0.4 nM. Further, the Kd came out at 1.3 nM in test [2] and 0.52 nM in test [3].
The substance “Trastuzumab scFv (VL_VH) with pN3F at position (-1), conjugated to DBCO-MMAF” displayed a Kd with HER2 on SKBR3 cells [6] of 14 nM.
